Measurements taken from patent publication US10053668B2, “Reprogramming bone endothelial cells for use in bone angiogenesis and osteogenesis” (MAX-PLANCK-GESELLSCHAFT ZUR FÖRDERUNG DER WISSENSCHAFTEN …, priority 2013, dated 2018).
Entries after “also recorded” stand apart in the source; their conditions may differ. Where a name gives a salt, the structure may show the parent alone.

B1: Noggin: recombinant Noggin (1967-NG, R&D Systems); secreted protein that binds and antagonises bone morphogenetic proteins (BMPs) (protein, UniProt Q13253 28-232, looked up)
Noggin: QHYLHIRPAPSDNLPLVDLIEHPDPIFDPKEKDLNETLLRSLLGGHYDPGFMATSPPEDRPGGGGGAAGGAEDLAELDQLLRQRPSGAMPSEIKGLEFSEGLAQGKKQRLSKKLRRKLQMWLWSQTFCPVLYAWNDLGSRFWPRYVKVGSCFSKRSCSVPEGMVCKPSKSVHLTVLRWRCQRRGGQRCGWIPIQYPIISECKCSC

How the values were obtained:
[1] = DFM treatment of aged mice, μ-CT analysis of tibia; assay type: in vivo, mouse; settings: 6 weeks of DFM treatment, compared to aged control mice
Experimental: […] […] Animals in the control group were injected with same amount of sterile water.
Tibiae were collected, and the attached soft tissue was removed thoroughly and fixed in 4% paraformaldehyde. The fixed tibiae were analyzed using micro-CT (μCT 35) and software IPL V5.15 at Scanco Medical AG, Switzerland. A voxel size of 12 μm was chosen in all three spatial dimensions. For each sample, 148 from 232 slices were evaluated covering a total of 1.776 mm at a voltage of 70kVp, intensity 114 μA, integration time 1200 ms.

[2] = tested on: bone endothelial cells (BECs); experiment: DFM treatment of cultured primary bone endothelial cells, qPCR mRNA analysis; assay type: cell-based, mouse; settings: isolated primary bone endothelial cells; DFM 6.25 mg/ml of culture medium, 7 hrs; qPCR vs vehicle
Experimental: Tibiae and femurs from wild-type mice or mice expressing endothelial specific reporters (Flk1 GFP and Cdh5 mtmg mice) or wild-type mice were collected in sterile Ca^2+ and Mg^2+ free PBS, crushed with mortar and pestle, digested with Collagenase A (Sigma) to obtain a single cell suspension. ECs were then MACS sorted using endomucin antibody (cat. no. SC-65495) and Dynabeads sheep anti-Rat IgG (Invitrogen). Sorted ECs were then plated on dishes coated with fibronectin and cultured in endothelial cell growth medium (EBM-2, Clonetics; Lonza) supplemented with EGM-2 SingleQuots (CC-4176, Clonetic; Lonza). At first passage, cells were again MACS sorted with endomucin antibody and plated for culture. Cells were fed every third day and passaged upon confluency. […]
For the analysis of mRNA expression levels in type H or type L endothelium, CD31^hi/Emcn^hi and CD31^lo/Emcn^lo cells were sorted by FACS directly into the lysis buffer of the RNeasy Mini Kit (QIAGEN). […] Quantitative PCR (qPCR) was performed using TaqMan gene expression assays on ABI PRISM 7900HT Sequence Detection System. […]
For the analysis of mRNA expression levels, pure total bone endothelial cells were flow-sorted directly into the lysis buffer of RNeasy Mini Kit (QIAGEN). […] Quantitative PCR (qPCR) was performed using TaqMan gene expression assays on ABI PRISM 7900HT Sequence Detection System. […]

[3] = tested on: long bone; experiment: DFM treatment of aged mice, qPCR of osteoprogenitor and osteoblast markers in long bone; assay type: in vivo, mouse; settings: DFM-treated vs control
Experimental: For DFM treatment, freshly prepared deferoxamine mesylate (Sigma) in water was injected intraperitoneally every alternate day at the dose of 15 mg/ml per mouse over four weeks. For μ-CT analysis, this treatment was continued for five weeks. Animals in the control group were injected with same amount of sterile water.
For the analysis of mRNA expression levels in type H or type L endothelium, CD31^hi/Emcn^hi and CD31^lo/Emcn^lo cells were sorted by FACS directly into the lysis buffer of the RNeasy Mini Kit (QIAGEN). Total RNA was isolated according to manufacturer's protocol. A total of 100 ng RNA per reaction was used to generate cDNA with the iScript cDNA Synthesis System (Bio-Rad). Quantitative PCR (qPCR) was performed using TaqMan gene expression assays on ABI PRISM 7900HT Sequence Detection System. The FAM-conjugated TaqMan probes Tgfb1, Tgfb3, Fgf1, Pdgfa, Pdgfb and Kitl were used along with TaqMan Gene Expression Master Mix (Applied Biosystems). Gene expression assays were normalized to endogenous VIC-conjugated Actb probes as standard. For analysis of mRNA expression levels from whole bones, dissected femurs were immediately crushed finely, digested with collagenase, centrifuged to obtain a pellet, which was then lysed into lysis buffer of RNeasy Mini Kit (QIAGEN). […]

[4] = tested on: type H endothelium (CD31^hi/Emcn^hi vessels); experiment: DFM treatment of aged mice, CD31/Osterix immunostaining of tibia sections; assay type: in vivo; settings: aged 64 to 70 week-old mice; DFM i.p. every alternate day, 15 mg/ml per mouse, four weeks; vs vehicle control
From the text: 3-4 weeks old male C57BL/6J mice were used for experiments involving analysis of juvenile mice. For the characterization of changes during aging, 9-11 week-old and 60-70 week-old C57BL/6J males were used as adults and aged mice, respectively. All EC-specific gene deletions were generated using Cdh5(PAC)-CreERT2 transgenic mice, which were interbred with conditional mutants carrying loxP-flanked Hif1α alleles (Hif1α^lox/lox). For experiments, Cdh5(PAC)-CreERT2^T/+ Hif1α^lox/lox were mated with Hif1α^lox/lox females. To induce Cre activity and gene deletion, pups were injected with 500 μg tamoxifen (Sigma, T5648) intraperitoneally everyday from postnatal day (P) 10 to P14. Femurs and tibiae from Cdh5(PAC)-CreERT2^T/+ Hif1α^lox/lox (Hif1α^iΔEC) mutants and Cre-negative (Hif1α^lox/lox) controls were collected on P28 after euthanasia. The same methodology was followed for gene deletion experiments involving conditional Vhl mice. For the specific genetic labeling of metaphyseal vasculature Cdh5(PAC)-CreERT2^T/+ mice were mated with Rosa26-mG/mT reporter line. At P29, Cdh5(PAC)-CreERT2^T/+/R26-mG/mT^d/+ mice received a single dose of 50 μg tamoxifen and were analyzed either 24 hrs (1 day) later or 40 days later. […]
For phenotypic analysis, mutant and littermate control samples were always processed, sectioned, stained, imaged and analysed together at the same conditions and settings. […]

[5] = tested on: Rbpj^iΔEC mice; experiment: Systemic recombinant Noggin in Rbpj^iΔEC mice, calcein double labelling; assay type: in vivo, mouse; settings: Noggin 500 μg/kg i.p. once daily P15 to P27, 7 day interval
Experimental: (§1) For experiments involving Noggin treatment, both control and Rbpj^iΔEC mice were injected intraperitoneally once daily with 500 μg/kg recombinant Noggin (1967-NG, R&D Systems) dissolved in PBS in a volume of 50 μl per dose. Another set of control and Rbpj^iΔEC mice was injected with 50ul PBS for experimental control. All protein injections were done from P15 to P27, after tamoxifen treatment (P10-P14) before the day of analysis (P28).
Calcein double labeling was performed to calculate mineral apposition rate (MAR).
Mice were given intraperitoneal injections of 10 mg/kg calcein (Sigma, C0875) dissolved in 2% sodium bicarbonate solution at 10th day and 3rd day before euthanasia. Bones were fixed in 4% PFA, embedded in 8% gelatin and 2% PVP and cryosectioned. Single plane images were acquired from the sections using LSM 780 (Carl Zeiss). Mineral Apposition Rate (MAR) is the amount of bone formed during a particular time interval. It is calculated using the distance between the midpoints of two labels divided by time interval (7days).

[6] = tested on: Rbpj^iΔEC mice; experiment: Systemic recombinant Noggin in Rbpj^iΔEC mice, immunostaining of tibia sections; assay type: in vivo, mouse
From the text: For Rbpj deletion in the postnatal vasculature, mice carrying loxP-flanked Rbpj gene (Rbpj^floxed) were interbred with mice expressing endothelial specific tamoxifen inducible CreERT2 i.e. Cdh5(PAC)-CreERT2. The males with genotype Rbpj^floxed/floxed Cdh5(PAC)-CreERT2^T/+ were interbred with Rbpj^floxed/floxed females to generate litters with Rbpj^floxed/floxed Cdh5(PAC)-CreERT2^T/+ (Rbpj^iΔEC) and Rbpj^floxed/floxed (control) genotypes. To induce Cre activity and gene deletion, all the litters were injected with 500 μg tamoxifen (Sigma, T5648) intraperitoneally everyday from P10 to P14. Femur and tibia were collected from these animals for analysis on P28 after euthanasia. The same methodology was followed for all gene deletion experiments of Fbxw7 ^iΔEC, Dll^iΔEC, Dll4^iΔEC, Jag1^iΔEC and Rbpj^iΔOB. For osteoblast specific loss of function experiments, Col1α1-CreERT2 mice (embryos purchased from Institut Clinique de la Souris, France) were interbred with Rbpj^floxed/floxed mice. Further, Rbpj floxed/floxed Col1a1-CreERT2^T/+ males were interbred with Rbpj^floxed/floxed females to generate litters with Rbpj^floxed/floxed Col1aCreERT2^T/+ (Rbpj^iΔOB) and Rbpj^floxed/floxed (control) genotypes.
as §1
Freshly dissected bone tissues collected from wild-type mice or from mutants and their control littermates were immediately fixed in ice-cold 4% paraformaldehyde solution for 4 hrs. Decalcification was carried out with 0.5M EDTA at 4° C. with constant shaking and decalcified bones were immersed into 20% sucrose and 2% polyvinylpyrrolidone (PVP) solution for 24 hr. Finally, the tissues were embedded and frozen in 8% gelatin (porcine) in presence of 20% sucrose and 2% PVP. For immunofluorescent stainings and morphological analyses, sections were generated using low-profile blades on a Leica CM3050 cryostat.
For phenotypic analysis, mutant and littermate control samples were always processed, sectioned, stained, imaged and analysed together at the same conditions and settings. For immunostaining, bone sections were air-dried, permeabilised for 10 min in 0.3% Triton X-100, blocked in 5% donkey serum at room temperature for 30 min, and probed with the primary antibodies diluted in 5% donkey serum in PBS for 2 hr at room temperature (RT) or overnight at 4° C.
Following are the details of primary antibodies used: Endomucin (sc-65495, Santa Cruz) used at 1:100 dilution; Pecam1 conjugated to Alexa fluor 488 (FAB3628G, R&D Systems) used at dilution 1:100; Pecam1 (553370, BD Pharmingen) used at 1:100 dilution; Osterix (sc-22536-R, Santa Cruz) used at dilution 1:200; Runx2 (MAB2006, R&D Systems) used at dilution 1:200; alpha SMA-Cy3 (C6198, Sigma) used at dilution 1:100; Hif1α (ab65979, Abcam) used at dilution 1:100; Collagen type 1 (AB675P; Millipore); Osteopontin (AF808, R&D Systems) used at dilution of 1:200, Mct4 (sc-50329 Santa Cruz) used at dilution of 1:100 and Glut1 (07-1401, Millipore) used at dilution of 1:100, NG2 Chondroitin Sulphate Proteoglycan (AB5320, Millipore) used at a dilution of 1:100.

[7] = tested on: murine mesenchymal progenitors; experiment: Osteoblastic differentiation of cultured murine mesenchymal progenitors with Noggin; assay type: cell-based, mouse; settings: in vitro, recombinant Noggin
[8] = Rbpj^iΔEC mice, Noggin 500 μg/kg i.p. once daily P15 to P27, analysis P28, vs saline-treated mutants

Molecule | bone mass (μ-CT) [1] | expression of growth factor mRNAs Pdgfa, Pdgfb, Fgf1, Tgfb1, Tgfb3 [2] | transcripts for CD31 and Endomucin [2] | expression levels of mRNAs Sp7, Bglap and lbsp in long bone [3] | Osterix-positive cells (osteoprogenitors) in association with type H vessels [4] | type H endothelium (CD31^hi/Emcn^hi vessels) in long bone [4] | bone formation and mineral apposition rate [5] | bone formation and mineral apposition rate ([5]; listed as noggin) | Endomucin staining intensity ([6]; Noggin-treated Rbpj^iΔEC tibia sections) | abundance of Runx2+ early osteoprogenitors in metaphysis [6, 8] | number of Osterix+ (Osx+) cells in metaphysis [6, 8] | organization of the Rbpj^iΔEC metaphysis [6, 8] | organization of the Rbpj^iΔEC bone vasculature (endothelial column and arch structures) ([6]; Rbpj^iΔEC mice, Noggin 500 μg/kg i.p. once daily P15 to P27, endomucin immunostaining) | trabecular bone formation (osteopontin immunostaining) ([6]; Rbpj^iΔEC mice, recombinant Noggin vs Saline) | differentiation of primary mesenchymal cells into osteoblasts [7] | alkaline phosphatase (ALP) expression ([7]; 28 days of differentiation) | mineral nodule formation (Alizarin staining; osteoblast maturation) ([7]; 28 days of differentiation)
CC(=O)N(O)CCCCCNC(=O)CCC(=O)N(O)CCCCCNC(=O)CCC(=O)N(O)CCCCCN [DFM, deferoxamine mesylate] | significant increase | induction; also recorded: increase | up regulation | significantly increased | induces; also recorded: emergence | induces; also recorded: substantial expansion |  |  |  |  |  |  |  |  |  |  | 
B1 |  |  |  |  |  |  | restored; also recorded: significantly restores | restores | increased | increases | reduced; also recorded: reduces the number of Osterix+ cells to control levels | restores | partially restored | partial restoration | Inhibition; also recorded: inhibits | enhanced; also recorded: maintained even after 28 days | supressed; also recorded: delayed
